{
  "source": "paper PMC10765961",
  "about": "(2024)",
  "test_in_all_cases": "microscale thermophoresis",
  "key": {"[1]": {"target": "EPHA2 (Homo sapiens, UniProt P29317)"}, "[2]": {"target": "EPHA2ΔC ECD (Homo sapiens, UniProt P29317)", "sequence (P29317 24-537, stated change not applied)": "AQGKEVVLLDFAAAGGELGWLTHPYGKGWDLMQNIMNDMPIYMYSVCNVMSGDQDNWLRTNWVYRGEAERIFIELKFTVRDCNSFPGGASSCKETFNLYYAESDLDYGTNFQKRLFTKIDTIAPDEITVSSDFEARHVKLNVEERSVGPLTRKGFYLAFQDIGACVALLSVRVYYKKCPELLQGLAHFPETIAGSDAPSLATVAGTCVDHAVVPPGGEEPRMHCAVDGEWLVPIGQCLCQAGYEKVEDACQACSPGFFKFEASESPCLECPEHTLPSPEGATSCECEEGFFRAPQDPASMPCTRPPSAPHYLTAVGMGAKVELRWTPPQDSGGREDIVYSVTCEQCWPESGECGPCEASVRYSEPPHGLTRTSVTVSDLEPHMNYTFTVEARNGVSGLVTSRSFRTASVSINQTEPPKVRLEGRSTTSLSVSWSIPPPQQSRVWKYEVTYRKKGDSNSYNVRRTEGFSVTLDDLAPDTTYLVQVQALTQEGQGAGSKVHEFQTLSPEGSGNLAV"}, "[3]": {"target": "T1, EPHA2ΔN intracellular region (Homo sapiens, UniProt P29317)", "T1 chain": "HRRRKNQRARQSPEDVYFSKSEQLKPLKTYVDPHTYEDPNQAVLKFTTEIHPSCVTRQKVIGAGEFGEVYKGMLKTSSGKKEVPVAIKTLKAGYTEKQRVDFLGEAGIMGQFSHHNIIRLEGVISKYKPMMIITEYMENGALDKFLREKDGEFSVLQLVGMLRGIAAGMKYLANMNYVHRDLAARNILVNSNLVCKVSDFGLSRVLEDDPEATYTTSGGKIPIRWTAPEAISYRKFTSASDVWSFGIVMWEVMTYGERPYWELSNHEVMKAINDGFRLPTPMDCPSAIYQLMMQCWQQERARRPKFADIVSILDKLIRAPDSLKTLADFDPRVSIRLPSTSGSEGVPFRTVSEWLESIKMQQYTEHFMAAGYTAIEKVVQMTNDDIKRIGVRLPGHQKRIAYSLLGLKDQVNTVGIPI"}},
  "data": [
    {"binder": "Claudin-1 (protein, Cy3-labeled CLDN1) MANAGLQLLGFILAFLGWIGAIVSTALPQWRIYSYAGDNIVTAQAMYEGLWMSCVSQSTGQIQCKVFDSLLNLSSTLQATRALMVVGILLGVIAIFVATVGMKCMKCLEDDEVQKMRMAVIGGAIFLLAGLAILVATAWYGNRIVQEFYDPMTPVNARYEFGQALFTGWAAASLCLLGGALLCCSCPRKTTSYPTPRPYPKPAPSSGKDYV", "values": [
      {"measurement": "Kd", "setting": "[1]", "value": 150, "unit": "nM"},
      {"measurement": "Kd", "setting": "[2]", "value": 582, "unit": "nM"},
      {"measurement": "Kd", "setting": "[3]", "value": 125, "unit": "nM"}
    ]}
  ]
}
